Biological target: T1, E. cloacae His6-CD-NTase fused at its C terminus to GFP
T1 chain: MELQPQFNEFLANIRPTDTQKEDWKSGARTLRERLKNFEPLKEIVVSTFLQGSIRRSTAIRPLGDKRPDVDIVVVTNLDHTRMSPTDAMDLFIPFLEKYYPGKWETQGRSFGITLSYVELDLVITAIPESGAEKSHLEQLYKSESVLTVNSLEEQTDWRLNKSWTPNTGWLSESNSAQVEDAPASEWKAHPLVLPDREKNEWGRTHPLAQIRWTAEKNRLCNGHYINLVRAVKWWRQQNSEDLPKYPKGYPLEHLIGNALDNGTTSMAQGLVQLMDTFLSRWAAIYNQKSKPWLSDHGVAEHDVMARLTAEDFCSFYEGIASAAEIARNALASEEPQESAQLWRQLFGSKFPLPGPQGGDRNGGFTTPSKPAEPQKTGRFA

B1: E. cloacae Cap3, residues 17-180 of the annotated gene (protein)
chain: MSIKDVTFSSEGALYTIVISSSTIEQMVSECLKAGVNETGGILIGSYSEDSSTAMIVEATTRPADSLAGRTTFQRGVRGLRPLLHARWKTGLYYVGEWHFHPGGSPEPSGDDFRSMTSIAANSDYQCLEPVMIILGGDPAGSYSLSASVSPRGDAPIRLREVLI
Which “cleavage of the CD-NTase-GFP model substrate (SDS-PAGE, mass spectrometry)” value does the source give for B1 here?
The value was “Both Cap3 proteins precisely cleaved the CD-NTase-GFP fusions at the CD-NTase C terminus”.

— patent US20230287362
